Laboratory results as given in patent US20230087600A1 (Bristol-Myers Squibb, published 2023).
Blank lines part the entries; values can stand above or below the binder they belong to.

Target: T1, human IL-10 receptor (IL-10R) on T cells and B cells of human whole blood (human, UniProt Q13651 22-578; Q08334 20-325)
T1 sequence (looked up) 1: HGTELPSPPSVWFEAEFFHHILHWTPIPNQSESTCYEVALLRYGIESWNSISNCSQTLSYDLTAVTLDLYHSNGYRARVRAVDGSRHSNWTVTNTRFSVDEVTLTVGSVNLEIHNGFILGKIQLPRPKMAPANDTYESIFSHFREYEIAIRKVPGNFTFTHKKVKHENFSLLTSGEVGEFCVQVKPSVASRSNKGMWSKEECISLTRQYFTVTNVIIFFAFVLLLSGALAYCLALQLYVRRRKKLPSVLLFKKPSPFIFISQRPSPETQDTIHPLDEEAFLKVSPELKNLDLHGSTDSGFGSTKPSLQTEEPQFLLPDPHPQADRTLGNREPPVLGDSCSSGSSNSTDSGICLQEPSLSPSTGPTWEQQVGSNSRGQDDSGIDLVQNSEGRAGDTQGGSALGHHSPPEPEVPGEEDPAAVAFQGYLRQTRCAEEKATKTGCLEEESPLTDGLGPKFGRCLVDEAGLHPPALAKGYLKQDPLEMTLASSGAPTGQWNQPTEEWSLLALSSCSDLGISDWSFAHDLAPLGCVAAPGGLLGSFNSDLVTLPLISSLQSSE
T1 sequence (looked up) 2: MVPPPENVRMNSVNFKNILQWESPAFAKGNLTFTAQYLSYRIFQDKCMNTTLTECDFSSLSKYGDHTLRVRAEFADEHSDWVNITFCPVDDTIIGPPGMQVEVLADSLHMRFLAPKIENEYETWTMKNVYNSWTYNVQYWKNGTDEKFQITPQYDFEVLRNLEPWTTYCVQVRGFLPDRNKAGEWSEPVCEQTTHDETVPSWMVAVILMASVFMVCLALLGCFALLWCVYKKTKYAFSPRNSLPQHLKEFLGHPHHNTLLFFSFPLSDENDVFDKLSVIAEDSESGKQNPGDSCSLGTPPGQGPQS
Experiment: cell-based or functional assay

STAT3 phosphorylation (pY705), flow cytometry, CD3+ T cells in human whole blood, EC50: 47.7 pM | STAT3 phosphorylation (pY705), flow cytometry, CD19+ B cells in human whole blood, EC50: 116 pM
B1: wildtype human IL-10 (ligand)
chain: SPGQGTQSENSCTHFPGNLPNMLRDLRDAFSRVKTFFQMKDQLDNLLLKESLLEDFKGYLGCQALSEMIQFYLEEVMPQAENQDPDIKAHVNSLGENLKTLRLRLRRCHRFLPCENKSKAVEQVKNAFNKLQEKGIYKAMSEFDIFINYIEAYMTMKIRN

STAT3 phosphorylation (pY705), flow cytometry, CD3+ T cells in human whole blood, EC50: 222 pM | STAT3 phosphorylation (pY705), flow cytometry, CD19+ B cells in human whole blood, EC50: 352 pM
B2: Fc-IL-10 (human IgG1.3f Fc domain - GGGGSSGGGGSGGGGSGGGGS linker - wildtype human IL-10) (Fc fusion)
chain: DKTHTCPPCPAPEAEGAPSVFLFPPKPKDTLMISRTPEVTCVVVDVSHEDPEVKFNWYVDGVEVHNAKTKPREEQYNSTYRVVSVLTVLHQDWLNGKEYKCKVSNKALPAPIEKTISKAKGQPREPQVYTLPPSREEMTKNQVSLTCLVKGFYPSDIAVEWESNGQPENNYKTTPPVLDSDGSFFLYSKLTVDKSRWQQGNVFSCSVMHEALHNHYTQKSLSLSPGGGGGSSGGGGSGGGGSGGGGSSPGQGTQSENSCTHFPGNLPNMLRDLRDAFSRVKTFFQMKDQLDNLLLKESLLEDFKGYLGCQALSEMIQFYLEEVMPQAENQDPDIKAHVNSLGENLKTLRLRLRRCHRFLPCENKSKAVEQVKNAFNKLQEKGIYKAMSEFDIFINYIEAYMTMKIRN
